Results reported in paper PMC6614843, “Stability and sub-cellular localization of DNA polymerase β is regulated by interactions with NQO1 and XRCC1 in response to oxidative stress” (Nucleic Acids Research, 2019).

Tests used:
[1] = target: Polβ(WT), purified recombinant (human, UniProt P06746 1-335); experiment: SPR; OpenSPR localized SPR (Nicoya); Polβ(WT) or Polβ(T304I) covalently coupled (EDC/NHS) to a carboxyl sensor; XRCC1 injected at 10, 100 nM, 1, 2, 5 and 10 μM; 25 mM HEPES pH 8.0, 150 mM NaCl, 200 mM MgCl2, 0.1% Tween 20, 1 mM TCEP; KD from response versus concentration (affinity model); conditions: both partners purified
[2] = target: Polβ(T304I), purified recombinant (human, UniProt P06746 1-335, T304I); experiment: as above; conditions: both partners purified

B1: NTD-XRCC1(1-151)-His (domain or fragment)
chain: MPEIRLRHVVSCSSQDSTHCAENLLKADTYRKWRAAKAGEKTISVVLQLEKEEQIHSVDIGNDGSAFVEVLVGSSAGGAGEQDYEVLLVTSSFMSPSESRSGSNPNRVRMFGPDKLVRAAAEKRWDRVKIVCSQPYSKDSPFGLSFVRFHS
notes: N-terminal domain of XRCC1, residues 1-151; human by the plasmid's name (hXRCC1); The name puts the His tag after the fragment; also called N-terminal fragment of XRCC1
- binding result [1]: binds
- mean fold decrease of binding affinity (KD) against Polβ(WT) [2]: 6.18 fold
